{
  "source": "paper PMC3338697",
  "about": "“Determination of Membrane Protein Transporter Oligomerization in Native Tissue Using Spatial Fluorescence Intensity Fluctuation Analysis” (PLoS ONE, 2012)",
  "target": "the molecule itself",
  "experiment": "fluorescence image moment analysis; CLSM images of rat kidney cryostat sections immunolabelled with primary anti-NBCe1-A antibody and Alexa 488 secondary antibody; proximal tubule basolateral membranes; brightness normalised to non-specifically bound antibody (44±4 iu = 1 MEU)",
  "data": [
    {"protein": "native NBCe1-A in rat kidney (proximal tubule basolateral cell membranes) (natural protein, rat (endogenous in rat kidney), UniProt Q9JI66-2 1-1035, looked up, Detected by a primary rabbit anti-NBCe1-A antibody and an Alexa 488 secondary antibody; also called endogenous NBCe1-A; immunolabeled NBCe1-A; source: endogenous, rat kidney cryostat sections (bought: Zyagen RF-901)) MSTENVEGKPNNLGERGRARSSTFLRVFQPMFNHSIFTSAVSPAAERIRFILGEEDDSPAPPQLFTELDELLAVDGQEMEWKETARWIKFEEKVEQGGERWSKPHVATLSLHSLFELRTCMEKGSIMLDREASSLPQLVEMIADHQIETGLLKPDLKDKVTYTLLRKHRHQTKKSNLRSLADIGKTVSSASRMFSNPDNGSPAMTHRNLTSSSLNDISDKPEKDQLKNKFMKKLPRDAEASNVLVGEVDFLDTPFIAFVRLQQAVMLGALTEVPVPTRFLFILLGPKGKAKSYHEIGRAIATLMSDEVFHDIAYKAKDRHDLIAGIDEFLDEVIVLPPGEWDPAIRIEPPKSLPSSDKRKNMYSGGENVQMNGDTPHDGGHGGGGHGDCEELQRTGRFCGGLIKDIKRKAPFFASDFYDALNIQALSAILFIYLATVTNAITFGGLLGDATDNMQGVLESFLGTAVSGAIFCLFAGQPLTILSSTGPVLVFERLLFNFSKDHSFDYLEFRLWIGLWSAFMCLILVATDASFLVQYFTRFTEEGFSSLISFIFIYDAFKKMIKLADYYPINSDFRVGYNTHFSCACLPPDPVNLSVSNDTTLAPEDLPTVSSTDMYHNATFDWAYLSKKECVKFGGKLVGNNCDFVPDITLMSFILFLGTYTSSMAMKKFKTSRYFPTTARKLISDFAIILSILIFCVIDALVGVDTPKLIVPSEFKPTSPHRGWFVPPFGGNPWWVCLAAAIPALLVTILIFMDQQITAVIVNRKEHKLKKGAGYHLDLFWVAILMVVCSFMALPWYVAATVISIAHIDSLKMETETSAPGEQPKFLGVREQRVTGTLVFILTGLSVFMAPILKFIPMPVLYGVFLYMGVASLNGVQFMDRLKLLLMPLKHQPDFIYLRHVPLRRVHLFTSLQVLCLALLWILKSTVAAIIFPVMILALVAVRKGMDYLFSQHDLSFLDDVIPEKDKKKKEDEKKKKKKKGSLDSDNDDSDCPYSEKVPSIKIPMDITEQQPFLSDNKPLDRERSSTFLERHTSC", "values": [
      {"measurement": "stoichiometry N", "result": 2}
    ]}
  ]
}
